PMC9932110
One block for each substance: values may come before it.

How the values were obtained:
Armc8β (mouse) [1] = experiment: native gel or EMSA; blue native PAGE of Armc8β
Armc8β (mouse) [2] = experiment: SEC-MALS; Armc8β alone, dilution series from two purifications; molar mass at the peak against peak concentration, one-site and two-site models; monomer to dimer and higher
Armc8β (mouse) [3] = experiment: ITC; ITC-200, 25 °C, 20 mM tricine pH 8.0, 150 or 200 mM NaCl, 1 mM TCEP; 50-150 μM in the syringe, 10 times lower in the cell; one-site model
Wdr26 (mouse) = Wdr26 (mouse) (UniProt Q8C6G8); experiment: as above
muskelin (rat) = muskelin (rat) (UniProt Q99PV3); experiment: as above
Armc8β (mouse) [4] = experiment: SEC-MALS; Twa1, Armc8β and their mixture at low concentrations
[5] = biological target: Twa1–Armc8β complex (mouse) (UniProt Q9D7M1); experiment: SEC-MALS; Tβ complex, dilution series; molar mass at the peak against peak concentration, one-site model; Tβ heterodimer to higher order oligomers

Sequence of Twa1 (Q9D7M1 whole entry): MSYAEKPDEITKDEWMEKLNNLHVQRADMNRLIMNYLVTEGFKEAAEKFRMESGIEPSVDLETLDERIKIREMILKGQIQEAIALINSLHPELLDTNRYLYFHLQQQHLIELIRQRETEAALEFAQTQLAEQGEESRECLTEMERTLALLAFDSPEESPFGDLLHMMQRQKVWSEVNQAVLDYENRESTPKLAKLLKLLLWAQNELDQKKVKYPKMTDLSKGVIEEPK
Sequence of muskelin (rat) (Q99PV3 whole entry): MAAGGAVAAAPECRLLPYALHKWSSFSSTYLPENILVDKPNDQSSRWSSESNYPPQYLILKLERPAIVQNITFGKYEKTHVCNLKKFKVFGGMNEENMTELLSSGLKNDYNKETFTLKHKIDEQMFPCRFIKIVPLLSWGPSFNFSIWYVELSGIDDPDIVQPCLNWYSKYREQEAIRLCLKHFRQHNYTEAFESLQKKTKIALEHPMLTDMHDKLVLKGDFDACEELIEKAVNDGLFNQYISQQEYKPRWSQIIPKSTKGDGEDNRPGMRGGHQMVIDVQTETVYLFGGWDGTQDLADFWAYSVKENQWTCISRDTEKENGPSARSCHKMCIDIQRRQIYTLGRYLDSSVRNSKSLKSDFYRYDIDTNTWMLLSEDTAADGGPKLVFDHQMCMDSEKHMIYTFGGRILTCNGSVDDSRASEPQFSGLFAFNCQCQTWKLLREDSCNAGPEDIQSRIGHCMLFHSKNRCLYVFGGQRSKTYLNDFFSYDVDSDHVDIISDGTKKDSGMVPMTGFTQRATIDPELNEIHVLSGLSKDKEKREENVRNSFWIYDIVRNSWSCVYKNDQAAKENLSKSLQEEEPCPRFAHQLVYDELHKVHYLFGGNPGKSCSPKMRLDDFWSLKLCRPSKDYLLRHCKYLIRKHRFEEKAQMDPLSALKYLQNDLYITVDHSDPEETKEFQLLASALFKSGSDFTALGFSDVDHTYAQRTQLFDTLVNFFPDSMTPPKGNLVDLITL
Sequence of Wdr26 (mouse) (Q8C6G8 other isoform, or with tags, fused parts or gaps): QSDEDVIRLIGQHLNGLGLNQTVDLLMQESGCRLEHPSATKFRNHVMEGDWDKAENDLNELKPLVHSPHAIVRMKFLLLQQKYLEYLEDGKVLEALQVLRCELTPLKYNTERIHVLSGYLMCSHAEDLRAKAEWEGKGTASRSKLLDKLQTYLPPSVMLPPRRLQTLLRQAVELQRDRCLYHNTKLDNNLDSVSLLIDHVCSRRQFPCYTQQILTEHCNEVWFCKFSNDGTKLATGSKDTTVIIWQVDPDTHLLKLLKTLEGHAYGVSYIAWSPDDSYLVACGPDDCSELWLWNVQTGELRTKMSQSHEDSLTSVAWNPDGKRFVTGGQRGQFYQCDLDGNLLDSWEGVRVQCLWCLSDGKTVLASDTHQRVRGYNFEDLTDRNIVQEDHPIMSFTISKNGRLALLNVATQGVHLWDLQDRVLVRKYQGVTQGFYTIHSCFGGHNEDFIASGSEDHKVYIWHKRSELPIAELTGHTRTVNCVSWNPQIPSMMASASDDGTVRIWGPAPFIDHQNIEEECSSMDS

stoichiometry N (Armc8β (mouse) [1]): 3 | KD high (two-site binding model) (Armc8β (mouse) [2]): 1800 nM | KD low (two-site binding model) (Armc8β (mouse) [2]): > 40000 nM | Kd (Armc8β (mouse) [2]): 5100 nM | stoichiometry N (Armc8β (mouse) [2]): 1 to 2
Substance: Armc8β (natural protein)

Kd (Armc8β (mouse) [3]): 8.1 nM | Kd (Wdr26 (mouse)): 3.4 nM | stoichiometry N (Wdr26 (mouse)): 0.95 | Kd (muskelin (rat)): 1.7 nM | stoichiometry N (muskelin (rat)): 1
Substance: RanBP9–Twa1 complex (from UniProt P69566 1-653; Q9D7M1 1-228)

stoichiometry N (Armc8β (mouse) [4]): 1 | Kd (Armc8β (mouse) [3]): 34.4 nM
Substance: Twa1 (from UniProt Q9D7M1 1-228) (natural protein)

Kd [5]: 6200 nM | stoichiometry N [5]: 8.2
Substance: Twa1–Armc8β complex (from UniProt Q9D7M1 1-228)
